# Experimental data published in the MegaScale stability set (Tsuboyama et al. 2023).
# B1: EEHEE_rd3_0130 (parent)
# chain: TKIIVNGKTFTAPTEEEAQKIAEKLAKKAGLTVHKKNGTFELK
# Variants of: B1
# Experiment: folding stability dG (cDNA display proteolysis); higher = more stable
# Details: PBS, room temperature
row,Variant,folding stability dG [kJ/mol]
1,TKIIVNGKTFTAPTEEEAQKIAEKLAKKQGLTVHKKNGTFELK [A29Q],3.04
2,TKIIVNGKTFTAPTEEEAQKIAEKLAKKHGLTVHKKNGTFELK [A29H],8.85
3,TKIIVNGKTFTAPTEEEAQKIAEKLAKKFGLTVHKKNGTFELK [A29F],12
4,TKIIVNGKTFTAPTEEEAQKIAEKLAKKYGLTVHKKNGTFELK [A29Y],13.9
5,TKIIVNGKTFTAPTEEEAQKIAEKLAKKEGLTVHKKNGTFELK [A29E],2.54
6,TKIIVNGKTFTAPTEEEAQKIAEKLAKKGGLTVHKKNGTFELK [A29G],2.58
7,TKIIVNGKTFTAPTEEEAQKIAEKLAKKSGLTVHKKNGTFELK [A29S],3.59
8,TKIIVNGKTFTAPTEEEAQKIAEKLAKKDGLTVHKKNGTFELK [A29D],1.36
9,TKIIVNGKTFTAPTEEEAQKIAEKLAKKVGLTVHKKNGTFELK [A29V],2.07
10,TKIIVNGKTFTAPTEEEAQKIAEKLAKKTGLTVHKKNGTFELK [A29T],5.02
11,TKIIVNGKTFTAPTEEEAQKIAEKLAKKPGLTVHKKNGTFELK [A29P],-3.11
12,TKIIVNGKTFTAPTEEEAQKIAEKLAKKRGLTVHKKNGTFELK [A29R],4.35
13,TKIIVNGKTFTAPTEEEAQKIAEKLAKKMGLTVHKKNGTFELK [A29M],8.68
14,TKIIVNGKTFTAPTEEEAQKIAEKLAKKKGLTVHKKNGTFELK [A29K],3.5
15,TKIIVNGKTFTAPTEEEAQKIAEKLAKKIGLTVHKKNGTFELK [A29I],4.1
16,TKIIVNGKTFTAPTEEEAQKIAEKLAKKWGLTVHKKNGTFELK [A29W],13.4
17,TKIIVNGKTFTAPTEEEAQKIAEKLAKKCGLTVHKKNGTFELK [A29C],10.7
18,TKIIVNGKTFTAPTEEEAQKIAEKLAKKNGLTVHKKNGTFELK [A29N],4.9
19,TKIIVNGKTFTAPTEEEAQKIAEKLAKKLGLTVHKKNGTFELK [A29L],10.2
20,TKIIVNGKTFTAPTEEEAQKIAEKLAKKAGLAVHKKNGTFELK [T32A],2.41
21,TKIIVNGKTFTAPTEEEAQKIAEKLAKKAGLNVHKKNGTFELK [T32N],1.17
22,TKIIVNGKTFTAPTEEEAQKIAEKLAKKAGLLVHKKNGTFELK [T32L],1.22
23,TKIIVNGKTFTAPTEEEAQKIAEKLAKKAGLCVHKKNGTFELK [T32C],4.41
24,TKIIVNGKTFTAPTEEEAQKIAEKLAKKAGLWVHKKNGTFELK [T32W],-1.71

row,Variant,folding stability dG [kJ/mol]
1,TKIIVNGKTFTAPTEEEAQKIAEKLAKKAGLYVHKKNGTFELK [T32Y],0.0962
2,TKIIVNGKTFTAPTEEEAQKIAEKLAKKAGLDVHKKNGTFELK [T32D],-0.255
3,TKIIVNGKTFTAPTEEEAQKIAEKLAKKAGLFVHKKNGTFELK [T32F],0.092
4,TKIIVNGKTFTAPTEEEAQKIAEKLAKKAGLEVHKKNGTFELK [T32E],0.929
5,TKIIVNGKTFTAPTEEEAQKIAEKLAKKAGLPVHKKNGTFELK [T32P],-1.87
6,TKIIVNGKTFTAPTEEEAQKIAEKLAKKAGLIVHKKNGTFELK [T32I],3.85
7,TKIIVNGKTFTAPTEEEAQKIAEKLAKKAGLQVHKKNGTFELK [T32Q],2.19
8,TKIIVNGKTFTAPTEEEAQKIAEKLAKKAGLHVHKKNGTFELK [T32H],0.665
9,TKIIVNGKTFTAPTEEEAQKIAEKLAKKAGLGVHKKNGTFELK [T32G],-1.19
10,TKIIVNGKTFTAPTEEEAQKIAEKLAKKAGLRVHKKNGTFELK [T32R],2.35
11,TKIIVNGKTFTAPTEEEAQKIAEKLAKKAGLVVHKKNGTFELK [T32V],4.29
12,TKIIVNGKTFTAPTEEEAQKIAEKLAKKAGLSVHKKNGTFELK [T32S],2.6
13,TKIIVNGKTFTAPTEEEAQKIAEKLAKKAGLMVHKKNGTFELK [T32M],1.34
14,TKIIVNGKTFTAPTEEEAQKIAEKLAKKAGLKVHKKNGTFELK [T32K],2.89
15,TKIIVNGKTFTAPTEEEAQKIAEKLAKKAGDTVHKKNGTFELK [L31D],-1.99
16,TKIIVNGKTFTAPTEEEAQKIAEKLAKKAGKTVHKKNGTFELK [L31K],-2.66
17,TKIIVNGKTFTAPTEEEAQKIAEKLAKKAGFTVHKKNGTFELK [L31F],2.98
18,TKIIVNGKTFTAPTEEEAQKIAEKLAKKAGSTVHKKNGTFELK [L31S],-2.47
19,TKIIVNGKTFTAPTEEEAQKIAEKLAKKAGQTVHKKNGTFELK [L31Q],-1.07
20,TKIIVNGKTFTAPTEEEAQKIAEKLAKKAGITVHKKNGTFELK [L31I],-1.46
21,TKIIVNGKTFTAPTEEEAQKIAEKLAKKAGTTVHKKNGTFELK [L31T],-1.53
22,TKIIVNGKTFTAPTEEEAQKIAEKLAKKAGYTVHKKNGTFELK [L31Y],2.75
23,TKIIVNGKTFTAPTEEEAQKIAEKLAKKAGHTVHKKNGTFELK [L31H],-0.544
24,TKIIVNGKTFTAPTEEEAQKIAEKLAKKAGNTVHKKNGTFELK [L31N],-3.41

row,Variant,folding stability dG [kJ/mol]
1,TKIIVNGKTFTAPTEEEAQKIAEKLAKKAGMTVHKKNGTFELK [L31M],3.74
2,TKIIVNGKTFTAPTEEEAQKIAEKLAKKAGGTVHKKNGTFELK [L31G],-2.11
3,TKIIVNGKTFTAPTEEEAQKIAEKLAKKAGCTVHKKNGTFELK [L31C],-0.418
4,TKIIVNGKTFTAPTEEEAQKIAEKLAKKAGVTVHKKNGTFELK [L31V],-0.13
5,TKIIVNGKTFTAPTEEEAQKIAEKLAKKAGWTVHKKNGTFELK [L31W],3.1
6,TKIIVNGKTFTAPTEEEAQKIAEKLAKKAGRTVHKKNGTFELK [L31R],-1.77
7,TKIIVNGKTFTAPTEEEAQKIAEKLAKKAGPTVHKKNGTFELK [L31P],-2.61
8,TKIIVNGKTFTAPTEEEAQKIAEKLAKKAGETVHKKNGTFELK [L31E],-3.72
9,TKIIVNGKTFTAPTEEEAQKIAEKLAKKAGATVHKKNGTFELK [L31A],-0.703
10,TKIIVNGKTFTAPTEEEAQKIAEKLAKKAGLTTHKKNGTFELK [V33T],0.933
11,TKIIVNGKTFTAPTEEEAQKIAEKLAKKAGLTFHKKNGTFELK [V33F],1.5
12,TKIIVNGKTFTAPTEEEAQKIAEKLAKKAGLTDHKKNGTFELK [V33D],-1.57
13,TKIIVNGKTFTAPTEEEAQKIAEKLAKKAGLTYHKKNGTFELK [V33Y],1.05
14,TKIIVNGKTFTAPTEEEAQKIAEKLAKKAGLTLHKKNGTFELK [V33L],3.73
15,TKIIVNGKTFTAPTEEEAQKIAEKLAKKAGLTNHKKNGTFELK [V33N],-2.44
16,TKIIVNGKTFTAPTEEEAQKIAEKLAKKAGLTHHKKNGTFELK [V33H],-1.87
17,TKIIVNGKTFTAPTEEEAQKIAEKLAKKAGLTAHKKNGTFELK [V33A],0.151
18,TKIIVNGKTFTAPTEEEAQKIAEKLAKKAGLTGHKKNGTFELK [V33G],-0.536
19,TKIIVNGKTFTAPTEEEAQKIAEKLAKKAGLTEHKKNGTFELK [V33E],-2.21
20,TKIIVNGKTFTAPTEEEAQKIAEKLAKKAGLTWHKKNGTFELK [V33W],2.48
21,TKIIVNGKTFTAPTEEEAQKIAEKLAKKAGLTIHKKNGTFELK [V33I],4.74
22,TKIIVNGKTFTAPTEEEAQKIAEKLAKKAGLTKHKKNGTFELK [V33K],-0.623
23,TKIIVNGKTFTAPTEEEAQKIAEKLAKKAGLTQHKKNGTFELK [V33Q],-2.4
24,TKIIVNGKTFTAPTEEEAQKIAEKLAKKAGLTCHKKNGTFELK [V33C],4.72

row,Variant,folding stability dG [kJ/mol]
1,TKIIVNGKTFTAPTEEEAQKIAEKLAKKAGLTMHKKNGTFELK [V33M],2.34
2,TKIIVNGKTFTAPTEEEAQKIAEKLAKKAGLTRHKKNGTFELK [V33R],-0.0293
3,TKIIVNGKTFTAPTEEEAQKIAEKLAKKAGLTSHKKNGTFELK [V33S],-0.0962
4,TKIIVNGKTFTAPTEEEAQKIAEKLAKKAHLTVHKKNGTFELK [G30H],2.22
5,TKIIVNGKTFTAPTEEEAQKIAEKLAKKAILTVHKKNGTFELK [G30I],-0.326
6,TKIIVNGKTFTAPTEEEAQKIAEKLAKKALLTVHKKNGTFELK [G30L],-0.749
7,TKIIVNGKTFTAPTEEEAQKIAEKLAKKARLTVHKKNGTFELK [G30R],0.238
8,TKIIVNGKTFTAPTEEEAQKIAEKLAKKAWLTVHKKNGTFELK [G30W],-1.04
9,TKIIVNGKTFTAPTEEEAQKIAEKLAKKAYLTVHKKNGTFELK [G30Y],-0.151
10,TKIIVNGKTFTAPTEEEAQKIAEKLAKKAVLTVHKKNGTFELK [G30V],-2.3
11,TKIIVNGKTFTAPTEEEAQKIAEKLAKKAKLTVHKKNGTFELK [G30K],1.14
12,TKIIVNGKTFTAPTEEEAQKIAEKLAKKAALTVHKKNGTFELK [G30A],-0.163
13,TKIIVNGKTFTAPTEEEAQKIAEKLAKKAPLTVHKKNGTFELK [G30P],-2.61
14,TKIIVNGKTFTAPTEEEAQKIAEKLAKKATLTVHKKNGTFELK [G30T],0.854
15,TKIIVNGKTFTAPTEEEAQKIAEKLAKKAFLTVHKKNGTFELK [G30F],-0.389
16,TKIIVNGKTFTAPTEEEAQKIAEKLAKKAMLTVHKKNGTFELK [G30M],0.0753
17,TKIIVNGKTFTAPTEEEAQKIAEKLAKKAQLTVHKKNGTFELK [G30Q],0.682
18,TKIIVNGKTFTAPTEEEAQKIAEKLAKKANLTVHKKNGTFELK [G30N],1.46
19,TKIIVNGKTFTAPTEEEAQKIAEKLAKKAELTVHKKNGTFELK [G30E],-1.08
20,TKIIVNGKTFTAPTEEEAQKIAEKLAKKADLTVHKKNGTFELK [G30D],0.293
21,TKIIVNGKTFTAPTEEEAQKIAEKLAKKACLTVHKKNGTFELK [G30C],4.1
22,TKIIVNGKTFTAPTEEEAQKIAEKLAKKASLTVHKKNGTFELK [G30S],0.573
23,TKIIVNGKTFTAPTEEEAQKIAEKLAWKAGLTVHKKNGTFELK [K27W],3.13
24,TKIIVNGKTFTAPTEEEAQKIAEKLASKAGLTVHKKNGTFELK [K27S],2.46

row,Variant,folding stability dG [kJ/mol]
1,TKIIVNGKTFTAPTEEEAQKIAEKLAVKAGLTVHKKNGTFELK [K27V],1.91
2,TKIIVNGKTFTAPTEEEAQKIAEKLATKAGLTVHKKNGTFELK [K27T],2.18
3,TKIIVNGKTFTAPTEEEAQKIAEKLAYKAGLTVHKKNGTFELK [K27Y],2.58
4,TKIIVNGKTFTAPTEEEAQKIAEKLAKKAGLTVAKKNGTFELK [H34A],1.89
5,TKIIVNGKTFTAPTEEEAQKIAEKLAKVAGLTVHKKNGTFELK [K28V],3.33
6,TKIIVNGKTFTAPTEEEAQKIAEKLAKDAGLTVHKKNGTFELK [K28D],3.09
7,TKIIVNGKTFTAPTEEEAQKIAEKLAKSAGLTVHKKNGTFELK [K28S],3.26
8,TKIIVNGKTFTAPTEEEAQKIAEKLAKGAGLTVHKKNGTFELK [K28G],1.99
9,TKIIVNGKTFTAPTEEEAQKIAEKLAKQAGLTVHKKNGTFELK [K28Q],3.65
10,TKIIVNGKTFTAPTEEEAQKIAEKLAKRAGLTVHKKNGTFELK [K28R],4.76
11,TKIIVNGKTFTAPTEEEAQKIAEKLAKNAGLTVHKKNGTFELK [K28N],2.44
12,TKIIVNGKTFTAPTEEEAQKIAEKLAKAAGLTVHKKNGTFELK [K28A],4.57
13,TKIIVNGKTFTAPTEEEAQKIAEKLAKIAGLTVHKKNGTFELK [K28I],4.15
14,TKIIVNGKTFTAPTEEEAQKIAEKLAKFAGLTVHKKNGTFELK [K28F],4.06
15,TKIIVNGKTFTAPTEEEAQKIAEKLAKLAGLTVHKKNGTFELK [K28L],4.33
16,TKIIVNGKTFTAPTEEEAQKIAEKLAKYAGLTVHKKNGTFELK [K28Y],4.44
17,TKIIVNGKTFTAPTEEEAQKIAEKLAKWAGLTVHKKNGTFELK [K28W],6.41
18,TKIIVNGKTFTAPTEEEAQKIAEKLAKPAGLTVHKKNGTFELK [K28P],0.536
19,TKIIVNGKTFTAPTEEEAQKIAEKLAKHAGLTVHKKNGTFELK [K28H],3.17
20,TKIIVNGKTFTAPTEEEAQKIAEKLAKEAGLTVHKKNGTFELK [K28E],3.61
21,TKIIVNGKTFTAPTEEEAQKIAEKLAKMAGLTVHKKNGTFELK [K28M],4.39
22,TKIIVNGKTFTAPTEEEAQKIAEKLAKTAGLTVHKKNGTFELK [K28T],3.04
